Experimental data from patent publication US20210253725A1 (BIONTECH, published 2021).
Residue numbers refer to the chain shown, from its start. Names may count otherwise.

B1: P018.S.06.A.C06 (antibody, V domains shown)
VH: QQQLEESGGGLVKPGGTLTLPCKASGFTISSDYDMCWVRQAPGKGLEWITCILGGSGGSTWYANWAKGRFTISQSSSTTVTLQMTSLTDADTATYFCTRASGFTYFELWGPGTLVTVSS
VL: AQVLTQTPSSVSAAVGGTVTINCQASQSVYNNKNLAWYQQKPGQPPKLLIYYASTLASGVSSRFKGSGSGTQFTLTISDVQSDDAATYYCQGEFSCSSSDCFAFGGGTEVVVK
notes: V regions on human Ig constant parts; also called AB27_102
B2: P018.S.04.A.G04 (antibody, V domains shown)
VH: QSLEESGGRLVTPGTPLTLTCTASGFTISSHHVTWVRQAPGEGLEWIGVIYPSGTTYYASWAKGRFTISRTSTTVDLKMTSLTIEDTATYFCVRDVGYFTLWGQGTLVTVSS
VL: AQVLTQTPSPVSAAVGGTVTISCQSSQSVGGNNWLAWYQQKLGQPPKLLIYYASTLASGVPPRFSGSGSGTQFTLTISEVQSDDSATYYCQGYYSDVTNAFGGGTEVVVK
notes: V regions on human Ig constant parts; also called AB27_78
B3: P018.S.01.A.G03 (antibody, V domains shown)
VH: QSVEESGGRLVTPGTPLTLTCTVSGFSLSSYSMIWVRQAPGKGLEWIGIVYASGSTNYASWAKGRFTISKTSTTVDLKITSPTTEDTATYFCARGDVLYAFDPWGPGTLVTVSS
VL: AFELTQTPSSVSAAVGGTVTIKCQASENIYSYLAWYQQKPGQPPKRLIYYASNLASGVSSRFKGSGSGTEFTLTISDLESADAATYYCQYTYSTSPGYIFGGGTEVVVK
notes: V regions on human Ig constant parts; also called AB27_22
B4: P018.S.02.A.A06 (antibody, V domains shown)
VH: QSVEESGGRLVKPDESLTLTCTVSGIDLSTYAMGWVRQAPGKGLEYIGMISTGGSAYYASWAQGRFTISRTSTTVDLKMTSLTTEDTATYFCARLRDPYSYRTYFNLWGPGTLVTVSS
VL: ALVMTQTPSSVEAAVGGTVTIKCQASLSISSALAWYQQKPGQRPKLLIYDASNLESGVPSRFKGSGSGAHFTLTVSDLESADAATYYCQGPYDTVNNNSFGGGTEVVVK
notes: V regions on human Ig constant parts; also called AB27_28
B5: P018.S.10.A.A04 (antibody, V domains shown)
VH: QSVEESGGRLVTPGTPLTLTCTVSGIDLSSNVMTWVRQAPGKGLEWIGYIYASATTYYATWAKGRFTISKTSTTVDLKMTSPTTEDTATYFCARERLASRGDYSDLWGQGTLVTVSS
VL: AYDMTQTPASVEAAVGGTVTIKCQASESIGDLLAWYQQKPGQPPKLLIYDASDLASGVPSRFKGSGSGTEFTLTISGVESADAATYYCQQGYTTTSNVDNIFGGGTEVVVK
notes: V regions on human Ig constant parts; also called AB27_164
B6: P018.S.04.A.D04 (antibody, V domains shown)
VH: QSVEESGGRLVTPGTPLTLTCTVSGIDLSSYSMTWVRQAPGKGLEWIGFINTGGRGYYASWAKGRFTISKTSTTVDLKITSPTTEDTATYFCARDAGSSRGYYRDLWGQGTLVTVSS
VL: B5 VL with E12S, S28D, G30Y, D31S, K63S, E70D, F71Y, T95S, S96T, N97T
notes: V regions on human Ig constant parts; also called AB27_72
B7: P018.S.03.A.F03 (antibody, V domains shown)
VH: QSLEESGGRLVTPGGSLTLTCTVSGIDLSSYAMGWVRQAPGKGLEYLGIIYTSNRTHYATWAKGRFTISKTSSTTVDLKATSLTTEDTATYFCGRYGRGSGGYYYGMDLWGPGTLVTVSS
VL: DIVMTQTPASVEAAVGGTVTIKCQASQSGDDYCSWYQQKPGQRPKLLIYAASTLASGVPSRFRGSRSGTEYTLTISDLESADAATYYCQNYCAGSGVCLGVAFGGGTEVVVK
notes: V regions on human Ig constant parts; also called AB27_54
B8: P018.S.10.A.C05 (antibody, V domains shown)
VH: QSVEETGGRLVTPGTPLTLTCAASGVSLSGYYAMSWVRQAPGKGLEWIGYLDATGSTYYASWVKGRFIISRPSTTVDLQITSPTIEDTATYFCARGSYDGVGYNWGLWGQGTLVTVSS
VL: DIVMTQTPASVSEPVGGTVTIKCQASESIYNGLAWYQQKPGQPPKRLIYGASTLTSGVPSRFKGSGSGTEFTLTISDLESDDAATYYCQSNYGSGSRSNYIFGGGTEVVVK
notes: V regions on human Ig constant parts; also called AB27_173
B9: P018.S.01.A.A05 (antibody, V domains shown)
VH: QEQLEESGGDRVQPEGSLTLTCTASGFSFSATYWICWVRQAPGKGLEWIACIFGRSSSDTYYASWAKGRFTISKTSSTTVTLQMTSLTAADTATYFCARGDSGHPYYYSFNLWGPGTLVTVSS
VL: AYDMTQTPASVEVAVGGTVTIKCQASQSIGGYLAWYQQKPGQPPKLLIYGASTLASGVPSRFRGSGSGTEFTLTISDLDSADAATYYCQCTHGTRSDWAFGGGTEVVVK
notes: V regions on human Ig constant parts; also called AB27_2
B10: P018.S.06.A.C03 (antibody, V domains shown)
VH: QSLEESGGGLFQPGGSLTLTCKASGLDFSTNYYMCWVRQAPGKGLELIACISTSSGNTWYASWAKGRFTISKTSSTTVTLQMTSLTAADTATYFCARCDIVYVGYGYASRLDLWGQGTLVTVSS
VL: AQVLTQTPSPVSAAVGGTVTINCQASESVYNNNNLAWYQQKPGQPPKFLIYGASSLASGVPSRFKGSGSGTQFTLTISDLESDDAATYYCAGGGSTSVGAFGGGTEVVVK
notes: V regions on human Ig constant parts; also called AB27_101
B11: P018.S.07.A.H02 (antibody, V domains shown)
VH: QEQLVESGGGLVQPEGSLTLTCKASGFDFSSDAMCWVRQAPGKGLEWIACIYVGSVGSSWYASWAKGRFTISKSSSTTVTLQVTSLTAADTATYFCARGENIAYFTFWGPGTLVTVSS
VL: DIMMTQTPASVSAAVGGTVTIKCQASQSINSWLSWYQQKPGQPPKLLIYKASTLASGVPSRFEGSGSGTEFTLTISDLESADAATYYCQGYYYYSSSNFASNAFGGGTEVVVK
notes: V regions on human Ig constant parts; also called AB27_131
B12: P018.S.01.A.D05 (antibody, V domains shown)
VH: QSLEESGGRLVTPGTPLTLTCTASGFSLSSYYMSWVRQAPGKGLEYIGGIYTGGSAYYASWARGRFTISRTSTTVDLKMTSLTIEDTATYFCARDAGDRIYTTFNLWGPGTLVTVSS
VL: ALVMTQTPASVSEPVGGTVSLKCQASQSIGSDLSWYQQKSGQPPKLLIYRASKLASGVPSRFKGSGSGTEFTLTISGVQSDDAATYYCLGIDSYSSDDGIAFGGGTEVVVK
notes: V regions on human Ig constant parts; also called AB27_13
B13: P018.S.04.A.B05 (antibody, V domains shown)
VH: QSVEESGGRLVTPGTPLTLTCTASGFTLSSFYMSWVRQAPGKGLEWIGFIHGHGNTYYASWAKGRFTISKTSTTVDLKIASPTTEDTATYFCARGGHPNMDLWGQGTLVTISS
VL: DIVMTQTPSSVEAAVGGTVTIKCQASQNINNYLAWYQQKPGQPPKLLIYYASTLASGVSSRFKGSGSGTEFTLTISDLESDDAATYYCQCSYYDASIFGAFGGGTEVVVR
notes: V regions on human Ig constant parts; also called AB27_68
B14: P018.S.03.A.B05 (antibody, V domains shown)
VH: QEQLEESGGDLVKPEGSLTLTCTASGFDLSSRYWICWVRQAPGKGLEWIGCIKTGFSNTWYASWATGRFTFSKASSTTVTLQMTSLTVADTATYFCARIAAAASASDDFRLWGPGTLVTVSS
VL: AQVLTQTPSSVSAAVGGTVTISCQSSKSVYNKWLSWFQQKPGQPPKLLIYDASDLASGVPSRFKGSGSGTEFTLTISDVQSDDAATYFCLGHYDSSSDRFVFGGGTEVVVK
notes: V regions on human Ig constant parts; also called AB27_43

These binders were tested against T1, CD27 expressed on the cell surface (HT1080_CD27 cells) (human, UniProt P26842 20-260) (assay: cellular binding assay, HT1080_CD27 cells).
T1 construct: whole, on cells; also called K562_CD27
T1 sequence (looked up): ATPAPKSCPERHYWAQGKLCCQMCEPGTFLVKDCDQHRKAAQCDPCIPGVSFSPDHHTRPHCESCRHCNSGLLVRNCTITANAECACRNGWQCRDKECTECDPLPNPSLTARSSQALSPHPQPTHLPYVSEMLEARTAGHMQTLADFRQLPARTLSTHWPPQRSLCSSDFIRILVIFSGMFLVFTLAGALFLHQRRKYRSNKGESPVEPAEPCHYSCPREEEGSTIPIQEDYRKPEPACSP
Further: test concentration or dose not given here.

Going from B1 to B2, the “Cellular binding assay [RFU]” value falls from 379 RFU to 335 RFU.

First: B3
Second: B4
The “Cellular binding assay [RFU]” value of the first is higher: 358 RFU for the first, 293 RFU for the second.

First: B5
Second: B6
The “Cellular binding assay [RFU]” value of the first is lower: 175 RFU for the first, 365 RFU for the second.

First: B7
Second: B8
The “Cellular binding assay [RFU]” value of the first is higher: 223 RFU for the first, 11 RFU for the second.

Compared with B9, B10 is lower in “Cellular binding assay [RFU]” value: 300 RFU for the first, 269 RFU for the second.

Compared with B11, B12 is lower in “Cellular binding assay [RFU]” value: 283 RFU for the first, 273 RFU for the second.

First: B13
Second: B14
The “Cellular binding assay [RFU]” value of the first is higher: 414 RFU for the first, 206 RFU for the second.

The binders below were run against T1, CD27 expressed on the cell surface … (assay: cell-based or functional assay).

Compared with B1, B2 is higher in “IL-8, cross-linked by F(ab')2 fragment [abs. corr.]” value (“IL-8, cross-linked” for short): 1.08 abs. corr for the first, 1.57 abs. corr for the second.

Going from B3 to B4, the “IL-8, cross-linked” value rises from 1.21 abs. corr to 1.48 abs. corr.

Going from B5 to B6, the “IL-8, cross-linked” value falls from 2.16 abs. corr to 1.32 abs. corr.

Going from B7 to B8, the “IL-8, cross-linked” value rises from 1.35 abs. corr to 2.1 abs. corr.

First: B9
Second: B10
The “IL-8, cross-linked” value of the first is lower: 1.09 abs. corr for the first, 1.13 abs. corr for the second.

Compared with B11, B12 is lower in “IL-8, cross-linked” value: 1.22 abs. corr for the first, 1.1 abs. corr for the second.

First: B13
Second: B14
The “IL-8, cross-linked” value of the first is lower: 1.08 abs. corr for the first, 1.21 abs. corr for the second.

Going from B1 to B2, the “IL-8 [abs. corr.]” value rises from 0.128 abs. corr to 0.451 abs. corr.

First: B3
Second: B4
The “IL-8 [abs. corr.]” value of the first is lower: -0.105 abs. corr for the first, 0.299 abs. corr for the second.

First: B5
Second: B6
The “IL-8 [abs. corr.]” value of the first is higher: 1.78 abs. corr for the first, 0.486 abs. corr for the second.

First: B7
Second: B8
The “IL-8 [abs. corr.]” value of the first is lower: 0.106 abs. corr for the first, 0.206 abs. corr for the second.

First: B9
Second: B10
The “IL-8 [abs. corr.]” value of the first is higher: 0.328 abs. corr for the first, 0.272 abs. corr for the second.

First: B11
Second: B12
The “IL-8 [abs. corr.]” value of the first is higher: 0.107 abs. corr for the first, 0.089 abs. corr for the second.

Compared with B13, B14 is higher in “IL-8 [abs. corr.]” value: 0.308 abs. corr for the first, 0.325 abs. corr for the second.

Each binder was assayed against T2, CD27 protein (His-tagged, Sino Biological Inc. 10039-H08B1) (human, UniProt P26842 20-192) (assay: ELISA on coated His-tagged CD27).
T2 construct: bought; coated onto ELISA plates; also called human CD27; recombinant protein; not shown: His tag
T2 sequence (looked up): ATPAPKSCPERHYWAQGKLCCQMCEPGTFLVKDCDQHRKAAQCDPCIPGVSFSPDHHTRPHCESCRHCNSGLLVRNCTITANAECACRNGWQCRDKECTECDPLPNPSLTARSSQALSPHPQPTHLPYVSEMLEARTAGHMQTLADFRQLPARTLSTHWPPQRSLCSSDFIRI

First: B1
Second: B2
The “ELISA [abs. corr.]” value of the first is lower: 3.13 abs. corr for the first, 3.48 abs. corr for the second.

Compared with B3, B4 is lower in “ELISA [abs. corr.]” value: 3.5 abs. corr for the first, 3.13 abs. corr for the second.

First: B5
Second: B6
The “ELISA [abs. corr.]” value of the first is lower: 3.13 abs. corr for the first, 3.7 abs. corr for the second.

Compared with B7, B8 is lower in “ELISA [abs. corr.]” value: 3.15 abs. corr for the first, 3.14 abs. corr for the second.

Going from B9 to B10, the “ELISA [abs. corr.]” value falls from 3.15 abs. corr to 3.14 abs. corr.

Compared with B11, B12 is lower in “ELISA [abs. corr.]” value: 3.47 abs. corr for the first, 3.14 abs. corr for the second.

Going from B13 to B14, the “ELISA [abs. corr.]” value falls from 3.5 abs. corr to 3.14 abs. corr.
